Measurements reported in paper PMC7486400, “Allosteric coupling between α-rings of the 20S proteasome” (Nature Communications, 2020).
Changes are numbered by the printed parent chain. In names and notes the source's numbering stands. Several values for one entry are separate records, joined by “and”; a condition that tells them apart may be missing. Equal entries are not always repeated.

B1: Thermoplasma acidophilium 20S proteasome α-subunit, wild type, full-length (natural protein, UniProt P25156 1-233, looked up)
chain: MQQGQMAYDRAITVFSPDGRLFQVEYAREAVKKGSTALGMKFANGVLLISDKKVRSRLIEQNSIEKIQLIDDYVAAVTSGLVADARVLVDFARISAQQEKVTYGSLVNIENLVKRVADQMQQYTQYGGVRPYGVSLIFAGIDQIGPRLFDCDPAGTINEYKATAIGSGKDAVVSFLEREYKENLPEKEAVTLGIKALKSSLEEGEELKAPEIASITVGNKYRIYDQEEVKKFL
notes: 20S proteasome α-subunit of Thermoplasma acidophilum, full-length; For the asymmetric CP the wild-type ring was co-expressed from α-His and α-MBP (both C-terminal, TEV site before the tag); All tags were removed after final purification, so the subunit is untagged in the EM samples; All these forms are kept as one molecule here; also called αWT; αwt
B2: Thermoplasma acidophilium 20S proteasome α-subunit K66A (natural protein, UniProt P25156 1-233, looked up)
chain: B1 chain with K66A
notes: 20S proteasome α-subunit of Thermoplasma acidophilum, full-length, K66A; In the EM samples the K66A ring (distal ring of the asymmetric CP) is untagged; also called α_(K66A); distal α-ring; source: E. coli BL21(DE3), purified (strep-trap column)
B3: Thermoplasma acidophilium 20S proteasome β-subunit, pro-peptide truncated (residues 2–8 removed) (natural protein)
chain: TTTVGITLKDAVIMATERRVTMENFIMHKNGKKLFQIDTYTGMTIAGLVGDAQVLVRYMKAELELYRLQRRVNMPIEAVATLLSNMLNQVKYMPYMVQLLVGGIDTAPHVFSIDAAGGSVEDIYASTGSGSPFVYGVLESQYSEKMTVDEGVDLVIRAISAAKQRDSASGGMIDVAVITRKDGYVQLPTDQIESRIRKLGLIL
notes: 20S proteasome β-subunit of Thermoplasma acidophilum; residues 2–8 truncated to simulate the autoproteolytic removal of the N-terminal pro-peptide; A protease (TEV) site stands before the tag; Tags were removed after final purification of the assembled CP; also called β monomers; source: E. coli BL21(DE3), purified (Ni-NTA)
B4: Thermoplasma acidophilium 20S proteasome α-subunit R28L (natural protein, UniProt P25156 1-233, looked up)
chain: B1 chain with R28L
notes: also called proximal α-ring of PAN-αWTββα_(K66A)

Key:
[1] = target: in vitro assembled asymmetric Thermoplasma acidophilium 20S core particle αWTββα_(K66A) (Thermoplasma acidophilium) (UniProt P25156)
[2] = target: in vitro assembled symmetric wild-type Thermoplasma acidophilium 20S core particle αWTββαWT (Thermoplasma acidophilium) (UniProt P25156)
[3] = target: in vitro assembled asymmetric Thermoplasma acidophilium 20S core particle αWTββα_(K66A) (Thermoplasma acidophilium) (UniProt P25156); remark: listed apart in the source
[4] = target: in vitro assembled symmetric wild-type Thermoplasma acidophilium 20S core particle αWTββαWT (Thermoplasma acidophilium) (UniProt P25156); remark: listed apart in the source
[5] = target: the molecule itself; experiment: negative stain EM; α-subunits expressed in E. coli and purified alone; Supplementary Fig. 1c–i (panel c is negative stain EM; the method of the other panels was not shown)
[6] = target: B2; experiment: in vitro reconstitution with two-step affinity purification; two types of purified α-subunits and β-subunit mixed 1:2:1 in Tris buffer pH 7.5, 1 h at 37 °C; strep-trap column (α K66A), TEV cleavage of all tags except MBP, then MBP column (wild-type α); details: both partners purified
[7] = target: the molecule itself; experiment: cryo-EM structure; single-particle cryo-EM of asymmetric CP with one activator bound, with or without substrate (LFP, GFP-ssrA), C7 symmetry applied, about 3 Å; PAN complexes with nucleotide
[8] = target: B1; experiment: as above; details: both partners purified
[9] = target: B4; experiment: as above; details: both partners purified

PA26 (Trypanosoma brucei) with the point mutation V230F (natural protein)
Kcat (1/min) of LFP peptidase activity, CP with PA26 (singly capped) [1]: 25.5 min⁻¹ | Vmax (μM/min) of LFP peptidase activity, CP with PA26 (singly capped) [1]: 409 µM/min | Kcat (1/min) of LFP peptidase activity, CP with PA26 (doubly capped) [2]: 50.3 min⁻¹ | Vmax (μM/min) of LFP peptidase activity, CP with PA26 (doubly capped) [2]: 805 µM/min

PA26PANc: PA26 (Trypanosoma brucei) with E102A and the last eight C-terminal residues replaced with the last eight C-terminal residues of PAN
Kcat (1/min) of LFP peptide degradation, 16 nM CP with 112 nM activator (singly capped) [3]: 14.4 min⁻¹ | Vmax (μM/min) of LFP peptide degradation, 16 nM CP with 112 nM activator (singly capped) [3]: 230 µM/min | Kcat (1/min) of LFP peptide degradation, 16 nM CP with 112 nM activator (doubly capped) [4]: 12.4 min⁻¹ | Vmax (μM/min) of LFP peptide degradation, 16 nM CP with 112 nM activator (doubly capped) [4]: 199 µM/min

B1
stoichiometry N [5]: 7 and 14 | binding result [6]: binds

B2
binding result [7]: binds

B3
binding result [8]: binds | binding result [9]: binds | binding result [6]: binds

B4
binding result [7]: binds
